Key:
NA7-HFNef (HIV-1 (NA7)) [1] = assay: co-IP; cytosolic (soluble, high speed supernatant) fraction of co-transfected 293T cells in Buffer B; anti-HA monoclonal antibody precipitates the HF-tagged Nef, untagged Nef detected by Western blot; FD estimated from band densities
SF2-HFNef (HIV-1 (SF2)) [2] = target: SF2-HFNef (HIV-1 (SF2)) (UniProt P03407); assay: as above
NA7-HFNef (HIV-1 (NA7)) [3] = assay: co-IP; membrane-associated protein fraction of co-transfected 293T cells, solubilised in Buffer B plus 0.5% IGEPAL CA-630; anti-HA monoclonal antibody precipitates the HF-tagged Nef, untagged Nef detected by Western blot; fractional dimerization (FD) estimated from band densities assuming strict dimers and a binomial distribution
SF2-HFNef (HIV-1 (SF2)) [4] = target: SF2-HFNef (HIV-1 (SF2)) (UniProt P03407); assay: as above
[5] = target: SIV_(MAC239)-HFNef (SIVmac239); assay: as above

Chain of UniProt P03407 (P03407 whole entry): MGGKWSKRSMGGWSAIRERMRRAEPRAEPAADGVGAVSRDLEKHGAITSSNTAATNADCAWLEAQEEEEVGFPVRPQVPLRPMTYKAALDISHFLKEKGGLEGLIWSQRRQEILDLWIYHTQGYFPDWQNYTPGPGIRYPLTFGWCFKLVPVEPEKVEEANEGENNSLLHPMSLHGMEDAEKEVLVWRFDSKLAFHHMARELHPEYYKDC

Substance	fractional dimerization (FD) (NA7-HFNef (HIV-1 (NA7)) [1])	fractional dimerization (FD) (SF2-HFNef (HIV-1 (SF2)) [2])	fractional dimerization (FD) (NA7-HFNef (HIV-1 (NA7)) [3])	fractional dimerization (FD) (SF2-HFNef (HIV-1 (SF2)) [4])	fractional dimerization (FD) [5]
NA7Nef (natural protein)	0.35	0.23	0.52	0.48	
SIV_(MAC239)Nef (natural protein)					0.37

Source: paper PMC2955668
